Assay results as given in publication PMC3103433 (2011).

B1: His-6-Munc18c [not stated] / Sx4 lacking the N-terminal 36 amino acids (N36Δ), GST fusion [not stated] (parent complex)
chain 1: MAPPVSERGLKSVVWRKIKTAVFDDCRKEGEWKIMLLDEFTTKLLSSCCKMTDLLEEGITVIENIYKNREPVRQMKALYFISPTPKSVDCFLRDFGSKSEKKYKAAYIYFTDFCPDSLFNKIKASCSKSIRRCKEINISFIPQESQVYTLDVPDAFYYCYSPDPSNASRKEVVMEAMAEQIVTVCATLDENPGVRYKSKPLDNASKLAQLVEKKLEDYYKIDEKGLIKGKTQSQLLIIDRGFDPVSTVLHELTFQAMAYDLLPIENDTYKYKTDGKEKEAVLEEDDDLWVRVRHRHIAVVLEEIPKLMKEISSTKKATEGKTSLSALTQLMKKMPHFRKQISKQVVHLNLAEDCMNKFKLNIEKLCKTEQDLALGTDAEGQRVKDSMLVLLPVLLNKNHDNCDKIRAVLLYIFGINGTTEENLDRLIHNVKIEDDSDMIRNWSHLGVPIVPPSQQAKPLRKDRSAEETFQLSRWTPFIKDIMEDAIDNRLDSKEWPYCSRCPAVWNGSGAVSARQKPRTNYLELDRKNGSRLIIFVIGGITYSEMRCAYEVSQAHKSCEVIIGSTHILTPRKLLDDIKMLNKSKDKVSFKDE
chain 2: PDDEFFQKVQTIRQTMAKLESKVRELEKQQVTILATPLPEESMKQGLQNLREEIKQLGREVRAQLKAIEPQKEEADENYNSVNTRMKKTQHGVLSQQFVELINKCNSMQSEYREKNVERIRRQLKITNAGMVSDEELEQMLDSGQSEVFVSNILKDTQVTRQALNEISARHSEIQQLERSIRELHEIFTFLATEVEMQGEMINRIEKNILSSADYVERGQEHVKIALENQKKARKKK
B2: His-6-Munc18c [not stated] / Sx4-GST, wild-type Syntaxin 4 cytosolic domain (residues 1-273) [not stated] (parent complex)
chain 1: B1 chain 1
chain 2: MRDRTHELRQGDNISDDEDEVRVALVVHSGAARLGSPDDEFFQKVQTIRQTMAKLESKVRELEKQQVTILATPLPEESMKQGLQNLREEIKQLGREVRAQLKAIEPQKEEADENYNSVNTRMKKTQHGVLSQQFVELINKCNSMQSEYREKNVERIRRQLKITNAGMVSDEELEQMLDSGQSEVFVSNILKDTQVTRQALNEISARHSEIQQLERSIRELHEIFTFLATEVEMQGEMINRIEKNILSSADYVERGQEHVKIALENQKKARKKK

Variants of: B1
Assay: GST pull-down, anti-Munc18c immunoblot quantification; 1 μg GST fusion on glutathione-Sepharose, 1 μg Munc18c, binding buffer, overnight, 4°C; read off a plot

screen value	Variant
~13 % of wild-type Sx4	chain 2 L137A, chain 2 E138A

Variants of: B1
Assay: GST pull-down, anti-Munc18c immunoblot quantification; 1 μg GST fusion on glutathione-Sepharose, 1 μg Munc18c, binding buffer, overnight, 4°C; n=3; read off a plot

screen value	Variant
~18 % of wild-type Sx4	chain 2 L137A, chain 2 E138A

Variants of: B2
Assay: GST pull-down, anti-Munc18c immunoblot quantification; 1 μg GST fusion on glutathione-Sepharose, 1 μg Munc18c, binding buffer, overnight, 4°C; read off a plot

percent of parent	Variant
~73 % of wild-type Sx4	chain 2 L173A, chain 2 E174A

Variants of: B2
Assay: GST pull-down, anti-Munc18c immunoblot quantification; 1 μg GST fusion on glutathione-Sepharose, 1 μg Munc18c, binding buffer, overnight, 4°C; n=3; read off a plot

percent of parent	Variant
~89 % of wild-type Sx4	chain 2 L173A, chain 2 E174A
